{"source": "paper PMC7910607", "about": "“Structure-guided insights into heterocyclic ring-cleavage catalysis of the non-heme Fe (II) dioxygenase NicX” (Nature Communications, 2021)", "key": {"[1]": {"biological_target": "T1, NicX (2,5-dihydroxypyridine dioxygenase) (Pseudomonas putida, UniProt Q88FY1)", "T1 construct": "full-length WT in pET-24a, C-terminal 6xHis tag, E. coli BL21(DE3), ~39 kDa, homohexamer, mononuclear Fe(II); domains residues 2-151 and 152-350", "T1 sequence (Q88FY1 1-350)": "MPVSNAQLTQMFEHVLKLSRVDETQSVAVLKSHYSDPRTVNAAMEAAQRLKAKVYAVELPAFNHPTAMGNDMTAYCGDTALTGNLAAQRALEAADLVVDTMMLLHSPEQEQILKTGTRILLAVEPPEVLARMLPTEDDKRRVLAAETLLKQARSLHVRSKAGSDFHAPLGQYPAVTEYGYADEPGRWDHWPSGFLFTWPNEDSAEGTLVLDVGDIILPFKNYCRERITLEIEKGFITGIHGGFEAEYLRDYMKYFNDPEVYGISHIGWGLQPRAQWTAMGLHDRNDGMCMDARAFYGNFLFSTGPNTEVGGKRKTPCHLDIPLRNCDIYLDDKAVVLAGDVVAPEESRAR", "experiment": "X-ray crystal structure, […] Å, soaked crystals", "assay_type": "binding", "settings": "soaked with 5 mM Fe2+, then 5 mM DHP and 20 mM sodium dithionite"}, "[2]": {"test_system": "T2, Oc1ccc(O)nc1", "T2 construct": "full-length WT in pET-24a, C-terminal 6xHis tag, E. coli BL21(DE3), ~39 kDa, homohexamer, mononuclear Fe(II); domains residues 2-151 and 152-350", "experiment": "purified protein", "assay_type": "biochemical, Pseudomonas putida", "settings": "20 mM Tris-HCl pH 8.0, 50 µM FeCl2, 25 °C, O2 (air)"}, "[3]": {"substrate": "Oc1ccc(O)nc1", "experiment": "purified protein", "assay_type": "biochemical, Pseudomonas putida", "settings": "20 mM Tris-HCl pH 8.0, 50 µM FeCl2, 25 °C, O2 (air)"}, "[4]": {"biological_target": "the molecule itself", "experiment": "crystal structure; hanging-drop vapor diffusion at 20 °C, 20% PEG 3350, pH 7.0; six molecules in the asymmetric unit; also crystals soaked with Fe2+ and DHP"}}, "data": [{"molecule": "Oc1ccc(O)nc1", "note": "[DHP, 2,5-dihydroxypyridine]", "values": [{"measurement": "X-ray crystal structure, 2.20 Å, soaked crystals", "setting": "[1]; active site of subunits C, D, E, F", "result": "four subunits (C, D, E, and F) of the six constituent molecules"}]}, {"molecule": "O=CNC(=O)/C=C\\C(=O)O", "note": "[NFM, N-formylmaleamic acid]", "values": [{"measurement": "X-ray crystal structure, 2.20 Å, soaked crystals", "setting": "[1]; active site of subunits A and B, formed in crystal from DHP", "result": "the other subunits (A and B) contain the product NFM"}]}, {"molecule": "NicX (2,5-dihydroxypyridine dioxygenase) (Pseudomonas putida KT2440; E308A)", "values": [{"measurement": "Km", "setting": "[2]", "result": "95.85 ± 3.68", "unit": "µM"}]}, {"molecule": "NicX (2,5-dihydroxypyridine dioxygenase) (Pseudomonas putida KT2440; V175F)", "values": [{"measurement": "Km", "setting": "[2]", "result": "117.9 ± 3.68", "unit": "µM"}]}, {"molecule": "NicX (2,5-dihydroxypyridine dioxygenase) (Pseudomonas putida KT2440) (protein, full-length WT in pET-24a, C-terminal 6xHis tag, E. coli BL21(DE3), ~39 kDa, homohexamer, mononuclear Fe(II); domains residues 2-151 and 152-350) MPVSNAQLTQMFEHVLKLSRVDETQSVAVLKSHYSDPRTVNAAMEAAQRLKAKVYAVELPAFNHPTAMGNDMTAYCGDTALTGNLAAQRALEAADLVVDTMMLLHSPEQEQILKTGTRILLAVEPPEVLARMLPTEDDKRRVLAAETLLKQARSLHVRSKAGSDFHAPLGQYPAVTEYGYADEPGRWDHWPSGFLFTWPNEDSAEGTLVLDVGDIILPFKNYCRERITLEIEKGFITGIHGGFEAEYLRDYMKYFNDPEVYGISHIGWGLQPRAQWTAMGLHDRNDGMCMDARAFYGNFLFSTGPNTEVGGKRKTPCHLDIPLRNCDIYLDDKAVVLAGDVVAPEESRAR", "values": [{"measurement": "Km", "setting": "[3]", "result": "94.9 ± 3.84", "unit": "µM"}]}, {"molecule": "2,5-Dihydroxypyridine dioxygenase (NicX) from Pseudomonas putida KT2440 (enzyme, UniProt Q88FY1 1-350, looked up, NicX, 2,5-dihydroxypyridine dioxygenase of Pseudomonas putida KT2440, full-length wild type; residues 2-350 described in the structure; Cloned into pET-24a between NdeI and HindIII with a C-terminal His tag; in PDB 7CN3 the crystals were soaked with Fe2+ and DHP (subunits C-F hold DHP, A and B hold NFM); also called WT NicX; wild type NicX; source: E. coli BL21(DE3), purified (Ni-NTA, Superdex200 …)) MPVSNAQLTQMFEHVLKLSRVDETQSVAVLKSHYSDPRTVNAAMEAAQRLKAKVYAVELPAFNHPTAMGNDMTAYCGDTALTGNLAAQRALEAADLVVDTMMLLHSPEQEQILKTGTRILLAVEPPEVLARMLPTEDDKRRVLAAETLLKQARSLHVRSKAGSDFHAPLGQYPAVTEYGYADEPGRWDHWPSGFLFTWPNEDSAEGTLVLDVGDIILPFKNYCRERITLEIEKGFITGIHGGFEAEYLRDYMKYFNDPEVYGISHIGWGLQPRAQWTAMGLHDRNDGMCMDARAFYGNFLFSTGPNTEVGGKRKTPCHLDIPLRNCDIYLDDKAVVLAGDVVAPEESRAR", "values": [{"measurement": "stoichiometry N", "setting": "[4]", "result": 6}]}, {"molecule": "SeMet-substituted NicX (enzyme, Pseudomonas putida KT2440, UniProt Q88FY1 1-350, looked up, selenomethionine (SeMet) substituted, NicX, 2,5-dihydroxypyridine dioxygenase of Pseudomonas putida KT2440, selenomethionine-substituted form of the full-length construct; Same construct as m1, expressed with selenomethionine for SAD phasing; also called SeMet-NicX; Se-NicX; source: E. coli B834(DE3) in M9 minimal media, purified (Ni-NTA, Superdex200 gel filtration)) MPVSNAQLTQMFEHVLKLSRVDETQSVAVLKSHYSDPRTVNAAMEAAQRLKAKVYAVELPAFNHPTAMGNDMTAYCGDTALTGNLAAQRALEAADLVVDTMMLLHSPEQEQILKTGTRILLAVEPPEVLARMLPTEDDKRRVLAAETLLKQARSLHVRSKAGSDFHAPLGQYPAVTEYGYADEPGRWDHWPSGFLFTWPNEDSAEGTLVLDVGDIILPFKNYCRERITLEIEKGFITGIHGGFEAEYLRDYMKYFNDPEVYGISHIGWGLQPRAQWTAMGLHDRNDGMCMDARAFYGNFLFSTGPNTEVGGKRKTPCHLDIPLRNCDIYLDDKAVVLAGDVVAPEESRAR", "values": [{"measurement": "binding result", "setting": "[4]", "result": "binds"}]}]}
